Measurements reported in patent US20250076311A1 (Chugai, published 2025).

Key:
[1] = target: T1, cynomolgus monkey FcγRIIIaS extracellular domain with C-terminal His-tag (cynomolgus monkey, UniProt A3RFZ7 21-206 (rhesus entry)); test: SPR (BIACORE), antibody captured, FcgR analyte
T1 construct: also called cyno FcgRIIIaS; cynoFcγRIIIaS; not shown: His-tag added to the C-terminus
Description: (§1) The kinetic analysis of interactions between these antibodies and FcγR was carried out using BIACORE® T200 or BIACORE® 4000 (GE Healthcare). HBS-EP+ (GE Healthcare) was used as the running buffer, and the measurement temperature was set to 25° C. […] After the measurement, the antibody captured on the chip was washed off by allowing reaction with 10 mM glycine-HCl, pH1.5 and 25 mM NaOH so that the chip was regenerated and used repeatedly. The sensorgrams obtained as measurement results were analyzed by the 1:1 Langmuir binding model using the BIACORE® Evaluation Software to calculate the binding rate constant ka (L/mol/s) and dissociation rate constant kd (1/s), and the dissociation constant KD (mol/L) was calculated from these values. […] Regarding such interactions, KD values were calculated using the following 1:1 binding model described in BIACORE® T100 Software Handbook BR1006-48 Edition AE.

[2] = target: T2, cynomolgus monkey FcγRIIIaS extracellular domain with C-terminal His-tag (cynomolgus monkey, UniProt Q8SPW2 21-206 at identity 1.00)); test: SPR; KD of SG1 / KD of variant
T2 construct: also called cyno FcγRIIIaS; FcgRIIIaS
T2 chain: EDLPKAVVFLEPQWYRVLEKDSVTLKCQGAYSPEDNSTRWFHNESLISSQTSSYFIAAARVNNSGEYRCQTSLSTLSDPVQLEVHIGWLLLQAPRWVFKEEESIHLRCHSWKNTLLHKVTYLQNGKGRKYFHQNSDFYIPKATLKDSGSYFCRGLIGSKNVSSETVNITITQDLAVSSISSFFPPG
Description: as §1

[3] = target: T3, human FcγRIIaH extracellular domain, His-tagged (human, UniProt P12318 34-217); test: SPR (Biacore), 25C, FcgR bound per antibody captured
T3 construct: also called human FcgRIIaH; FcγRIIa type H
T3 sequence: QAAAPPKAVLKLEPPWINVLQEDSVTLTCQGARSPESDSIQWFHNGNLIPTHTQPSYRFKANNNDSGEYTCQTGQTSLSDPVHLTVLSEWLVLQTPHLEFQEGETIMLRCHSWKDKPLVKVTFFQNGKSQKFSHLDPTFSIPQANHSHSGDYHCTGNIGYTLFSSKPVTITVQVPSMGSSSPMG

[4] = target: T4, human FcγRIIIaV extracellular domain, His-tagged (human, UniProt P08637 17-208); test: as above
T4 construct: also called human FcgRIIIaV
T4 sequence (P08637 17-208 F176V): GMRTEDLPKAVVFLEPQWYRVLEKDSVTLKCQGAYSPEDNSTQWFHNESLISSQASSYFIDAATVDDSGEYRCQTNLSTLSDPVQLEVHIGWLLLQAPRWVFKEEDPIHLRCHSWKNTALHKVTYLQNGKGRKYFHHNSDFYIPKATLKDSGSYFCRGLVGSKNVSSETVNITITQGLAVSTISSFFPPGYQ

[5] = target: T5, human FcγRIIaR extracellular domain, His-tagged (human, UniProt P12318 34-217); test: as above
T5 construct: also called human FcgRIIaR; FcγRIIa type R
T5 chain: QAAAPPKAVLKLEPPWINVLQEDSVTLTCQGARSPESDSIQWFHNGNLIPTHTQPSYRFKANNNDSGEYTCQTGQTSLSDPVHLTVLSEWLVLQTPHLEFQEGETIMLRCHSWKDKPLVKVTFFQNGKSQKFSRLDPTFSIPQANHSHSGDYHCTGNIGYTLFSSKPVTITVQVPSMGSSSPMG

Binder	Kd [1] [µM]	KD fold (SG1 = 1) [2] [fold]	Binding to human FcgRs (parent B3 = 100) [3]	Binding to human FcgRs (parent B3 = 100) [4]	Binding to human FcgRs (parent B3 = 100) [5]
M103205H795-MY350/M103202L889-SK1 (antibody, human IgG1, kappa, name in EU numbering, Fc variant of MS1032LO06-SG1; positions in EU numbering) heavy: QVTLKESGPVLVKPTETLTLTCTVSGIDLSHDDISWVRQAPGKGLEWVGIISYAGSTYYASWAKGRLTISKDTSKNQVVLTMTNMDPVDTATYYCARGVPAYSHGGDLWGQGTLVTVSSASTKGPSVFPLAPSSKSTSGGTAALGCLVKDYFPEPVTVSWNSGALTSGVHTFPAVLQSSGLYSLSSVVTVPSSSLGTQTYICNVNHKPSNTKVDKKVEPKSCDKTHTCPPCPAPELWNGPSVFLFPPKPKDTLMISRTPEVTCVVVDVSEEDPEVKFNWYVDGVEVHNAKTKPREEQYNSTYRVVSVLTVLHQDWLNGKEYKCKVSNKALPKPIEKTISKAKGQPREPQVYTLPPSREEMTKNQVSLTCLVKGFYPSDIAVEWESNGQPENNYKTTPMVLDSDGSFFLYSKLTVDKSRWQQGNVFSCSVMHEALHNHYTQKSLSLSP light: DIVMTQSPATLSLSPGERATLSCTSSQSVYHANWLSWFQQKPGQPPKLLIYWASTLAYGVPSRFSGSGSGTDFTLTISSLQPEDAATYYCAGGYGGGRYAFGQGTKVEIKRTVAAPSVFIFPPSDEQLKSGTASVVCLLNNFYPREAKVQWKVDNALQSGNSQESVTEQDSKDSTYSLSSTLTLSKADYEKHKVYACEVTHQGLSSPVTKSFNRGEC	6.6				
M103205H795-MY278 (heavy chain) with M103202L889-SK1 (light chain) (antibody, human IgG1, kappa, name in EU numbering, Substitutions introduced into M103205H795-SG1; positions in EU numbering) heavy: QVTLKESGPVLVKPTETLTLTCTVSGIDLSHDDISWVRQAPGKGLEWVGIISYAGSTYYASWAKGRLTISKDTSKNQVVLTMTNMDPVDTATYYCARGVPAYSHGGDLWGQGTLVTVSSASTKGPSVFPLAPSSKSTSGGTAALGCLVKDYFPEPVTVSWNSGALTSGVHTFPAVLQSSGLYSLSSVVTVPSSSLGTQTYICNVNHKPSNTKVDKKVEPKSCDKTHTCPPCPAPELLMGPSVFLFPPKPKDTLMISRTPEVTCVVVDVSDEDPEVKFNWYVDGVEVHNAKTKPREELYNSTYRVVSVLTVLHQDWLNGKEYKCKVSNKALPKPIEKTISKAKGQPREPQVYTLPPSREEMTKNQVSLTCLVKGFYPSDIAVEWESNGQPENNYKTTPPVLDSDGSFFLYSKLTVDKSRWQQGNVFSCSVMHEALHNHYTQKSLSLSP light: DIVMTQSPATLSLSPGERATLSCTSSQSVYHANWLSWFQQKPGQPPKLLIYWASTLAYGVPSRFSGSGSGTDFTLTISSLQPEDAATYYCAGGYGGGRYAFGQGTKVEIKRTVAAPSVFIFPPSDEQLKSGTASVVCLLNNFYPREAKVQWKVDNALQSGNSQESVTEQDSKDSTYSLSSTLTLSKADYEKHKVYACEVTHQGLSSPVTKSFNRGEC		0.49			
M103205H795-MY518/M103202L889-SK1 (antibody, Fc variant of MS1032LO06-SG1; EU numbering) heavy: QVTLKESGPVLVKPTETLTLTCTVSGIDLSHDDISWVRQAPGKGLEWVGIISYAGSTYYASWAKGRLTISKDTSKNQVVLTMTNMDPVDTATYYCARGVPAYSHGGDLWGQGTLVTVSSASTKGPSVFPLAPSSKSTSGGTAALGCLVKDYFPEPVTVSWNSGALTSGVHTFPAVLQSSGLYSLSSVVTVPSSSLGTQTYICNVNHKPSNTKVDKKVEPKSCDKTHTCPPCPAPELWNGPSVFLFPPKPKDTLMISRTPEVTCVVVDVSDEDPEVKFNWYVDGVEVHNAKTKPREELYNSTYRVVSVLTVLHQDWLNGKEYKCKVSNTALPKPIEKTISKAKGQPREPQVYTLPPSREEMTKNQVSLTCLVKGFYPSDIAVEWESNGQPENNYKTTPPVLDSDGSFFLYSKLTVDKSRWQQGNVFSCSVMHEALHNHYTQKSLSLSP light: DIVMTQSPATLSLSPGERATLSCTSSQSVYHANWLSWFQQKPGQPPKLLIYWASTLAYGVPSRFSGSGSGTDFTLTISSLQPEDAATYYCAGGYGGGRYAFGQGTKVEIKRTVAAPSVFIFPPSDEQLKSGTASVVCLLNNFYPREAKVQWKVDNALQSGNSQESVTEQDSKDSTYSLSSTLTLSKADYEKHKVYACEVTHQGLSSPVTKSFNRGEC	4.2				
M103205H795-MY142 (heavy chain) with M103202L889-SK1 (light chain) (antibody, human IgG1, kappa, name in EU numbering, Substitutions introduced into M103205H795-SG1; positions in EU numbering) heavy: QVTLKESGPVLVKPTETLTLTCTVSGIDLSHDDISWVRQAPGKGLEWVGIISYAGSTYYASWAKGRLTISKDTSKNQVVLTMTNMDPVDTATYYCARGVPAYSHGGDLWGQGTLVTVSSASTKGPSVFPLAPSSKSTSGGTAALGCLVKDYFPEPVTVSWNSGALTSGVHTFPAVLQSSGLYSLSSVVTVPSSSLGTQTYICNVNHKPSNTKVDKKVEPKSCDKTHTCPPCPAPELLEGPSVFLFPPKPKDTLMISRTPEVTCVVVDVSEEDPEVKFNWYVDGVEVHNAKTKPREEQYNSTYRVVSVLTVLHQDWLNGKEYKCKVSNKALPAPIEKTISKAKGQPREPQVYTLPPSREEMTKNQVSLTCLVKGFYPSDIAVEWESNGQPENNYKTTPMVLDSDGSFFLYSKLTVDKSRWQQGNVFSCSVMHEALHNHYTQKSLSLSP light: DIVMTQSPATLSLSPGERATLSCTSSQSVYHANWLSWFQQKPGQPPKLLIYWASTLAYGVPSRFSGSGSGTDFTLTISSLQPEDAATYYCAGGYGGGRYAFGQGTKVEIKRTVAAPSVFIFPPSDEQLKSGTASVVCLLNNFYPREAKVQWKVDNALQSGNSQESVTEQDSKDSTYSLSSTLTLSKADYEKHKVYACEVTHQGLSSPVTKSFNRGEC		2.57			
M103205H795-MY279 (heavy chain) with M103202L889-SK1 (light chain) (antibody, human IgG1, kappa, name in EU numbering, Substitutions introduced into M103205H795-SG1; positions in EU numbering) heavy: QVTLKESGPVLVKPTETLTLTCTVSGIDLSHDDISWVRQAPGKGLEWVGIISYAGSTYYASWAKGRLTISKDTSKNQVVLTMTNMDPVDTATYYCARGVPAYSHGGDLWGQGTLVTVSSASTKGPSVFPLAPSSKSTSGGTAALGCLVKDYFPEPVTVSWNSGALTSGVHTFPAVLQSSGLYSLSSVVTVPSSSLGTQTYICNVNHKPSNTKVDKKVEPKSCDKTHTCPPCPAPELLHGPSVFLFPPKPKDTLMISRTPEVTCVVVDVSDEDPEVKFNWYVDGVEVHNAKTKPREELYNSTYRVVSVLTVLHQDWLNGKEYKCKVSNKALPKPIEKTISKAKGQPREPQVYTLPPSREEMTKNQVSLTCLVKGFYPSDIAVEWESNGQPENNYKTTPPVLDSDGSFFLYSKLTVDKSRWQQGNVFSCSVMHEALHNHYTQKSLSLSP light: DIVMTQSPATLSLSPGERATLSCTSSQSVYHANWLSWFQQKPGQPPKLLIYWASTLAYGVPSRFSGSGSGTDFTLTISSLQPEDAATYYCAGGYGGGRYAFGQGTKVEIKRTVAAPSVFIFPPSDEQLKSGTASVVCLLNNFYPREAKVQWKVDNALQSGNSQESVTEQDSKDSTYSLSSTLTLSKADYEKHKVYACEVTHQGLSSPVTKSFNRGEC		0.15			
GpH7-B3 A327N / GpL16-k0 (antibody, human IgG1, kappa, also called B3 variant A327N) heavy: not shown light: DIVMTQSPLSLPVTPGEPASISCQASESLVHSNRNTYLHWYLQKPGQSPQLLIYKVSNRFSGVPDRFSGSGSGTDFTLKISRVEAEDVGVYYCSQNTHVPPTFGQGTKVEIERTVAAPSVFIFPPSDEQLKSGTASVVCLLNNFYPREAKVQWKVDNALQSGNSQESVTEQDSKDSTYSLSSTLTLSKADYEKHKVYACEVTHQGLSSPVTKSFNRGEC			95	32	48
GpH7-B3 A330R / GpL16-k0 (antibody, human IgG1, kappa, also called B3 variant A330R) heavy: not shown light: DIVMTQSPLSLPVTPGEPASISCQASESLVHSNRNTYLHWYLQKPGQSPQLLIYKVSNRFSGVPDRFSGSGSGTDFTLKISRVEAEDVGVYYCSQNTHVPPTFGQGTKVEIERTVAAPSVFIFPPSDEQLKSGTASVVCLLNNFYPREAKVQWKVDNALQSGNSQESVTEQDSKDSTYSLSSTLTLSKADYEKHKVYACEVTHQGLSSPVTKSFNRGEC			116	73	123
GpH7-B3 P271E / GpL16-k0 (antibody, human IgG1, kappa, also called B3 variant P271E) heavy: not shown light: DIVMTQSPLSLPVTPGEPASISCQASESLVHSNRNTYLHWYLQKPGQSPQLLIYKVSNRFSGVPDRFSGSGSGTDFTLKISRVEAEDVGVYYCSQNTHVPPTFGQGTKVEIERTVAAPSVFIFPPSDEQLKSGTASVVCLLNNFYPREAKVQWKVDNALQSGNSQESVTEQDSKDSTYSLSSTLTLSKADYEKHKVYACEVTHQGLSSPVTKSFNRGEC			90	87	51
GpH7-B3 A330K / GpL16-k0 (antibody, human IgG1, kappa, also called B3 variant A330K) heavy: not shown light: DIVMTQSPLSLPVTPGEPASISCQASESLVHSNRNTYLHWYLQKPGQSPQLLIYKVSNRFSGVPDRFSGSGSGTDFTLKISRVEAEDVGVYYCSQNTHVPPTFGQGTKVEIERTVAAPSVFIFPPSDEQLKSGTASVVCLLNNFYPREAKVQWKVDNALQSGNSQESVTEQDSKDSTYSLSSTLTLSKADYEKHKVYACEVTHQGLSSPVTKSFNRGEC			121	86	127
